Test results taken from patent US20120093830A1 (published 2012).
Substitutions are numbered along the chain they refer to. Values joined by “and” are separate entries in the source; they are usually repeats but may differ in a detail not shown here. Identical values can stand only once.

Legend:
cynomolgus IL-13 = cynomolgus IL-13 (cynomolgus, UniProt Q0PW92 21-132); experiment: cell-based or functional assay
human IL-13 [1] = target: T1, human IL-13 (human, UniProt P35225 35-146); experiment: cell-based or functional assay
T1 sequence (P35225 35-146 limits assumed): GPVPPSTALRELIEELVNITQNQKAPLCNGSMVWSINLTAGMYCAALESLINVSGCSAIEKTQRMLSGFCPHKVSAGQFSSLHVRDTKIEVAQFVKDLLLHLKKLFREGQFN

human IL-13 [2] = target: T1, human IL-13; experiment: IL-13 sandwich ELISA (IL-13 binding to the capture antibody inhibited); block 4; sample #16 (2.6 mg/mL in PBS), aerosolised material after E-flow vibrating mesh nebuliser
Protocol: (§1) The plate was then incubated with TMB substrate (KPL, Gaithersburg, USA), and the reaction was stopped by the addition of HCl and the absorbance read at 450 nm.
(§2) Nebulisation was performed for approximately 3 minutes. 100 uL of protein samples (diluted to 1 mg/mL) were injected onto the SEC (TSKgel G2000SWXL, Tosoh Biosciences, Germany) column. The protein separation on SEC was performed at 0.5 mL/min for 45 minutes. PBS (phosphate buffered saline)+10% EtOH was used as mobile phase. The detection of eluting proteinaceous material was carried by on-line detection by UV (Abs 280 nm & 215 nm). […] The optimum MMAD is 3 μm and for deep lung delivery the desirable respirable fraction is the highest percentage of particles <5 μm. The LC+ (Pari) Jet nebuliser gives the better MMAD: MMAD values are lower when the buffer contains PEG; MMAD decreases as protein concentration increases.

human IL-13 [3] = target: T1, human IL-13; experiment: IL-13 sandwich ELISA: dAb dilution series mixed with IL-13, binding of IL-13 to the coating (capture) antibody detected; block 2 of the table, sample not nebulised
Protocol: as §1, §2

human IL-13 [4] = target: T1, human IL-13; experiment: IL-13 sandwich ELISA (IL-13 binding to the capture antibody inhibited); block 1; sample #14 (2.3 mg/ml, 25 mM sodium phosphate pH 7.5, 7% PEG1000, 1.2% sucrose), material remaining in the cup after LC+ jet nebuliser
Protocol: as §1, §2

human IL-13 [5] = target: T1, human IL-13; experiment: IL-13 sandwich ELISA (IL-13 binding to the capture antibody inhibited); block 3; sample #15 (4.7 mg/mL, 25 mM sodium phosphate pH 7.5, 7% PEG1000, 1.2% sucrose), aerosolised material after LC+ jet nebuliser
Protocol: as §1, §2

human IL-13 [6] = target: T1, human IL-13; experiment: IL-13 sandwich ELISA (IL-13 binding to the capture antibody inhibited); block 2; sample #14 (2.3 mg/ml, 25 mM sodium phosphate pH 7.5, 7% PEG1000, 1.2% sucrose), aerosolised material after LC+ jet nebuliser
Protocol: as §1, §2

human IL-13 [7] = target: T1, human IL-13; experiment: IL-13 sandwich ELISA (IL-13 binding to the capture antibody inhibited); block 2; sample #15 (4.7 mg/mL, 25 mM sodium phosphate pH 7.5, 7% PEG1000, 1.2% sucrose), aerosolised material after E-flow vibrating mesh nebuliser
Protocol: as §1, §2

human IL-13 [8] = target: T1, human IL-13; experiment: IL-13 sandwich ELISA: dAb dilution series mixed with IL-13, binding of IL-13 to the coating (capture) antibody detected; block 3 of the table, sample not nebulised
Protocol: as §1, §2

human IL-13 [9] = target: T1, human IL-13; experiment: IL-13 sandwich ELISA (IL-13 binding to the capture antibody inhibited); block 4; sample #16 (2.6 mg/mL in PBS), material remaining in the cup after LC+ jet nebuliser
Protocol: as §1, §2

human IL-13 [10] = target: T1, human IL-13; experiment: IL-13 sandwich ELISA (IL-13 binding to the capture antibody inhibited); block 2; sample #15 (4.7 mg/mL, 25 mM sodium phosphate pH 7.5, 7% PEG1000, 1.2% sucrose), material remaining in the cup after E-flow vibrating mesh nebuliser
Protocol: as §1, §2

human IL-13 [11] = target: T1, human IL-13; experiment: IL-13 sandwich ELISA: dAb dilution series mixed with IL-13, binding of IL-13 to the coating (capture) antibody detected; block 4 of the table, sample not nebulised
Protocol: as §1, §2

human IL-13 [12] = target: T1, human IL-13; experiment: IL-13 sandwich ELISA (IL-13 binding to the capture antibody inhibited); block 3; sample #15 (4.7 mg/mL, 25 mM sodium phosphate pH 7.5, 7% PEG1000, 1.2% sucrose), material remaining in the cup after LC+ jet nebuliser
Protocol: as §1, §2

human IL-13 [13] = target: T1, human IL-13; experiment: IL-13 sandwich ELISA: dAb dilution series mixed with IL-13, binding of IL-13 to the coating (capture) antibody detected; block 1 of the table, sample not nebulised
Protocol: as §1, §2

human IL-13 [14] = target: T1, human IL-13; experiment: IL-13 sandwich ELISA (IL-13 binding to the capture antibody inhibited); block 4; sample #16 (2.6 mg/mL in PBS), aerosolised material after LC+ jet nebuliser
Protocol: as §1, §2

human IL-13 [15] = target: T1, human IL-13; experiment: IL-13 sandwich ELISA (IL-13 binding to the capture antibody inhibited); block 1; sample #14 (2.3 mg/ml, 25 mM sodium phosphate pH 7.5, 7% PEG1000, 1.2% sucrose), aerosolised material after E-flow vibrating mesh nebuliser
Protocol: as §1, §2

human IL-13 [16] = target: T1, human IL-13; experiment: IL-13 sandwich ELISA (IL-13 binding to the capture antibody inhibited); block 3; sample #16 (2.6 mg/mL in PBS), material remaining in the cup after E-flow vibrating mesh nebuliser
Protocol: as §1, §2

human IL-13 [17] = target: T1, human IL-13; experiment: IL-13 sandwich ELISA: dAb dilution series mixed with IL-13, binding of IL-13 to the coating (capture) antibody detected; block 4 of the table, standard
human IL-13 [18] = target: T1, human IL-13; experiment: IL-13 sandwich ELISA: dAb dilution series mixed with IL-13, binding of IL-13 to the coating (capture) antibody detected; block 2 of the table, standard
human IL-13 [19] = target: T1, human IL-13; experiment: IL-13 sandwich ELISA: dAb dilution series mixed with IL-13, binding of IL-13 to the coating (capture) antibody detected; block 3 of the table, standard
human IL-13 [20] = target: T1, human IL-13; experiment: IL-13 sandwich ELISA: dAb dilution series mixed with IL-13, binding of IL-13 to the coating (capture) antibody detected; block 1 of the table, standard

Sequence of cynomolgus IL-13 (Q0PW92 entry or part of it): as the sequence (P35225 35-146 limits assumed) above, with G1S, R10K, M42V, S67N, H83R, L100V counted along it

B1: DOM10-275-78 (single domain antibody (dAb), V domains shown)
VH: EVQLLESGGGLVQPGGSLRLSCVASGFTFDVAEMDWVRQAPGKGLEWVSTISPSRRGTYYADSVKGRFTISRDNSKNTLYLQMNSLRAEDTAVYYCAKAYTGRSLWGPGTLVTVSS
Cynomolgus IL-13
  EC50, FIG. 1B: inhibition of cynomolgus IL-13 (3 ng/ml) stimulated alkaline phosphatase production in HEK STAT6 cells: 1.37 nM
Human IL-13 [1]
  EC50, FIG. 1A: inhibition of human IL-13 (3 ng/ml) stimulated alkaline phosphatase production in HEK STAT6 cells: 2.42 nM and 2.65 nM

B2: DOM10-53-474 (single domain antibody (dAb), V domains shown)
VH: GVQLLESGGGLVQPGGSLRLSCAASGFTFAWYDMGWVRQAPGKGLEWVSSIDWHGEVTYYADSVKGRFTISRDNSKNTLYLQMNSLRAEDTAVYYCATAEDEPGYDYWGQGTLVTVSS
notes: Soluble anti-IL-13 domain antibody monomer (immunoglobulin single variable domain); also called anti-IL-13 dAb
Cynomolgus IL-13
  EC50, FIG. 1B: inhibition of cynomolgus IL-13 (3 ng/ml) stimulated alkaline phosphatase production in HEK STAT6 cells: 10.8 nM
Human IL-13 [1]
  EC50, FIG. 1A: inhibition of human IL-13 (3 ng/ml) stimulated alkaline phosphatase production in HEK STAT6 cells: 0.72 nM
Human IL-13 [2]
  IC50: 0.0351 nM
Human IL-13 [3]
  IC50: 0.0356 nM
Human IL-13 [4]
  IC50: 0.0317 nM
Human IL-13 [5]
  IC50: 0.0149 nM
Human IL-13 [6]
  IC50: 0.0348 nM
Human IL-13 [7]
  IC50: 0.0185 nM
Human IL-13 [8]
  IC50: 0.0289 nM
Human IL-13 [9]
  IC50: 0.0339 nM
Human IL-13 [10]
  IC50: 0.0214 nM
Human IL-13 [11]
  IC50: 0.0269 nM
Human IL-13 [12]
  IC50: 0.0129 nM
Human IL-13 [13]
  IC50: 0.0458 nM
Human IL-13 [14]
  IC50: 0.023 nM
Human IL-13 [15]
  IC50: 0.0322 nM
Human IL-13 [16]
  IC50: 0.0224 nM

B3: DOM10-53-344 (Std) (single domain antibody (dAb), V domains shown)
VH: B2 VH with T28I
Human IL-13 [17]
  IC50: 0.0671 nM
Human IL-13 [18]
  IC50: 0.125 nM
Human IL-13 [19]
  IC50: 0.0455 nM
Human IL-13 [20]
  IC50: 0.0716 nM
